Experimental data: patent US6410711
One block for each binder: values may come before it.

Experiments:
CD40/Fc fusion protein [1] = target: T1, CD40/Fc fusion protein (human, UniProt P25942 21-193); test: biosensor assay substantially as Example 22 (captured CD40/Fc); yeast-expressed protein
T1 construct: extracellular domain; also called C40/Fc; s CD40/Fc; not shown: remainder of the human IgG1 Fc region, joined at a Bgl II site near the beginning of the hinge
Experimental: The biosensor chips were coated with goat anti-human IgG_1 Fc, which was used to bind CD40/Fc (prepared as described in Example 1) to the chip. The different constructs of CD40-L were then added at increasing concentrations; the chip was regenerated between the different constructs by the addition of sodium hydroxide. Two separate experiments were performed. In the first, the binding of a dimeric human CD40-L (Example 14), trimeric human CD40-L (Example 15), dimeric murine CD40-L (prepared substantially as described in Example 14 for human CD40-L/FC) and trimeric murine CD40-L (prepared substantially as described for the human CD40-L in Example 15) were compared. In the second experiment, the binding of trimeric human CD40-L was compared to the binding of two different preparations of monomeric human CD40-L prepared as described in Example 18. The resultant data were analyzed to determine the affinity and association rate constants of the different CD40-L constructs. Results are shown in Table 12 below, and in FIGS. 19A–19B
[a]Mutations are given as the residue present in the native peptide, the residue number, and the residue present in the mutein. Residue numbers for zipper domain mutations are relative to SEQ ID NO: 17. [b]Residue numbers for mutations in the CD40L domain are relative to SEQ ID NO: 12. […]

CD40/Fc fusion protein [2] = target: T1, CD40/Fc fusion protein; test: biosensor (BIAcore), CD40/Fc captured by goat anti-human IgG1 Fc; experiment 1
Experimental: (§1) This example illustrates the binding affinities of several different CD40-L constructs. Affinity experiments were conducted by biospecific interaction analysis (BIA) using a biosensor, an instrument that combines a biological recognition mechanism with a sensing device or transducer. An exemplary biosensor is BIAcore™, from Pharmacia Biosensor AB (Uppsala, Sweden; see Fägerstam L. G., *Techniques in Protein Chemistry II*, ed. J. J. Villafranca, Acad. Press, NY, 1991). BIAcore™ uses the optical phenomenon surface plasmon resonance (Kretschmann and Raether, *Z. Naturforschung, Teil. A* 23:2135, 1968) to monitor the interaction of two biological molecules. Molecule pairs having affinity constants in the range 10^5 to 10^10 M^-1, and association rate constants in the range of 10^3 to 10^6 M^-1s^-1, are suitable for characterization with BLAcore™.
(§2) The biosensor chips were coated with goat anti-human IgG_1 Fc, which was used to bind CD40/Fc (prepared as described in Example 1) to the chip. The different constructs of CD40-L were then added at increasing concentrations; the chip was regenerated between the different constructs by the addition of sodium hydroxide. Two separate experiments were performed. […] The resultant data were analyzed to determine the affinity and association rate constants of the different CD40-L constructs. […]

CD40/Fc fusion protein [3] = target: T1, CD40/Fc fusion protein; test: biosensor (BIAcore), CD40/Fc captured by goat anti-human IgG1 Fc; experiment 1; K1 (site 1)
Experimental: as §1, §2

CD40/Fc fusion protein [4] = target: T1, CD40/Fc fusion protein; test: biosensor (BIAcore), CD40/Fc captured by goat anti-human IgG1 Fc; experiment 1; K2 (site 2)
Experimental: as §1, §2

T1 sequence (P25942 other isoform, or with tags, fused parts or gaps limits assumed): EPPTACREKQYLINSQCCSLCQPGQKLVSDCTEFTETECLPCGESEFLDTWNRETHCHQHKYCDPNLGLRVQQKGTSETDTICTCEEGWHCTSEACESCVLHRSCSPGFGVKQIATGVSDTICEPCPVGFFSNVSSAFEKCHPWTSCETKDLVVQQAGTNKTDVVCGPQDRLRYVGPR

Ka (CD40/Fc fusion protein [1]): 7.7e+07 M⁻¹
B1: wild type CD40 ligand/zipper domain fusion protein (WT) expressed in yeast (ligand)
chain: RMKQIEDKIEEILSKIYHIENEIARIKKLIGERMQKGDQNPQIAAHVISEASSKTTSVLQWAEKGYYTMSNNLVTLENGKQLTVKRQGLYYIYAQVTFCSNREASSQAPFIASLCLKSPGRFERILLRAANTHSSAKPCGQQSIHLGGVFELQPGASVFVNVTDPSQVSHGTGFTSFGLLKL

Site 1 (mol/mol CD40/Fc) (CD40/Fc fusion protein [2]): 0.02 mol/mol CD40/Fc
Site 2 (mol/mol CD40/Fc) (CD40/Fc fusion protein [2]): 0.44 mol/mol CD40/Fc
Ka (CD40/Fc fusion protein [3]): 6e+10 M⁻¹
Ka (CD40/Fc fusion protein [4]): 1.6e+08 M⁻¹
B2: trimeric murine CD40-L (ligand)
chain: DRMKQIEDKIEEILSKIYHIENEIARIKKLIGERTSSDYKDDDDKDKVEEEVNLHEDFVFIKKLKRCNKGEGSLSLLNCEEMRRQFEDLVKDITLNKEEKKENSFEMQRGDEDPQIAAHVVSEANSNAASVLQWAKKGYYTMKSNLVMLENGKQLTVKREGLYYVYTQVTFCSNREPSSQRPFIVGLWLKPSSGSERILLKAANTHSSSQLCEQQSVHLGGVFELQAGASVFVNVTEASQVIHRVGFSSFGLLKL
notes: The leader is not part of the secreted protein; Made in CHO cells; also called Murine Trimer; muCD40LT
